Laboratory results from IntAct's records for PubMed 11520064.

B1: Frizzled-8 (Mus musculus), Q61091 (parent)
chain: MEWGYLLEVTSLLAALAVLQRSSGAAAASAKELACQEITVPLCKGIGYNYTYMPNQFNHDTQDEAGLEVHQFWPLVEIQCSPDLKFFLCSMYTPICLEDYKKPLPPCRSVCERAKAGCAPLMRQYGFAWPDRMRCDRLPEQGNPDTLCMDYNRTDLTTAAPSPPRRLPPPPPPGEQPPSGSGHSRPPGARPPHRGGSSRGSGDAAAAPPSRGGKARPPGGGAAPCEPGCQCRAPMVSVSSERHPLYNRVKTGQIANCALPCHNPFFSQDERAFTVFWIGLWSVLCFVSTFATVSTFLIDMERFKYPERPIIFLSACYLFVSVGYLVRLVAGHEKVACSGGAPGAGGAGGAGGAAAAGAGAAGAGASSPGARGEYEELGAVEQHVRYETTGPALCTVVFLLVYFFGMASSIWWVILSLTWFLAAGMKWGNEAIAGYSQYFHLAAWLVPSVKSIAVLALSSVDGDPVAGICYVGNQSLDNLRGFVLAPLVIYLFIGTMFLLAGFVSLFRIRSVIKQQGGPTKTHKLEKLMIRLGLFTVLYTVPAAVVVACLFYEQHNRPRWEATHNCPCLRDLQPDQARRPDYAVFMLKYFMCLVVGITSGVWVWSGKTLESWRALCTRCCWASKGAAVGAGAGGSGPGGSGPGPGGGGGHGGGGGSLYSDVSTGLTWRSGTASSVSYPKQMPLSQV

Variants of: B1
Conditions: with gopc_mouse Gopc

Row | effect of a mutation on the interaction | Variant
1 | disrupting interaction | V685A
